Substitutions are numbered along the chain they refer to. Names may count otherwise. “And” between values parts separate entries of the source, which are not always exact repeats. Equal values may be shown once.
Key:
[1] = molecular target: T1, Human CLEC12A-His (recombinant, K244 WT) (human, UniProt Q5QGZ9 65-265); experiment: SPR, two-state fit (ka1)
T1 construct: Made in house (Dragonfly Tx); also called hCLEC12A; hCLEC12A-His; not shown: His tag
T1 sequence: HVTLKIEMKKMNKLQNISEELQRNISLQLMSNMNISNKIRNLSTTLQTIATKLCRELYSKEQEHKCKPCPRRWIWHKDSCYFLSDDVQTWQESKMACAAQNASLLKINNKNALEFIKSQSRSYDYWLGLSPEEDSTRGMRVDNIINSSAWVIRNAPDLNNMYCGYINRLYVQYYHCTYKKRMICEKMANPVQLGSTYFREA

[2] = molecular target: T2, Human CLEC12A-K244Q-His (human, UniProt Q5QGZ9 65-265); experiment: SPR, two-state fit (ka1)
T2 construct: also called hCLEC12A (Q244); CLEC12A (Q244); not shown: His tag
T2 chain: T1 sequence with K180Q

[3] = molecular target: T3, Human CD16a V158 (FcγRIIIa V158) (human, UniProt P08637 17-208, biotinylated); experiment: SPR; control sample
T3 construct: Bought recombinant receptor; also called hCD16aV; hFcγRIIIa V158
T3 sequence (P08637 17-208 F176V limits assumed): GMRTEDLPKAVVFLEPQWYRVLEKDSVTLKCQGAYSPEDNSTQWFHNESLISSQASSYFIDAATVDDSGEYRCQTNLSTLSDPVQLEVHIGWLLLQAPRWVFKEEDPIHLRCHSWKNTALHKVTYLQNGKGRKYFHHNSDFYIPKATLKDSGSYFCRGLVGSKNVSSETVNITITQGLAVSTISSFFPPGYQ

[4] = molecular target: T4, mFc-hNKG2D (recombinant mFc-tagged human NKG2D dimer) (human, UniProt P26718 73-216); experiment: SPR; control sample
T4 construct: extracellular domain; Made in house; not shown: mouse Fc tag
T4 sequence (looked up): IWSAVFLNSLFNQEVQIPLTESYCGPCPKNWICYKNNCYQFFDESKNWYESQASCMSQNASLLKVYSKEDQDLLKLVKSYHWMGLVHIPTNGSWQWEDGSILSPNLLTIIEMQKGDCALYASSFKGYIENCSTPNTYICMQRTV

[5] = molecular target: T1, Human CLEC12A-His (recombinant, K244 WT); experiment: SPR 37C, two-state fit, average
[6] = molecular target: T1, Human CLEC12A-His (recombinant, K244 WT); experiment: SPR 37C, AB0089 captured on anti-hFc, two-state fit (kd1)
[7] = molecular target: T1, Human CLEC12A-His (recombinant, K244 WT); experiment: SPR, two-state fit (kd1); after low pH hold
[8] = molecular target: T1, Human CLEC12A-His (recombinant, K244 WT); experiment: SPR, two-state fit (ka1); after forced oxidation
[9] = molecular target: T1, Human CLEC12A-His (recombinant, K244 WT); experiment: SPR, two-state fit; control (fully purified protein study)

- kon [1]: 1.63e+07 M⁻¹ s⁻¹
- kon [2]: 9.7e+06 M⁻¹ s⁻¹
- Kd [3]: 323 nM
- koff [3]: 0.0276 s⁻¹
- kon [3]: 85300 M⁻¹ s⁻¹
- Kd [4]: 772 nM
- koff [4]: 0.135 s⁻¹
- kon [4]: 175000 M⁻¹ s⁻¹
- Kd [5]: 0.74 nM
- koff [6]: 0.0426 s⁻¹ and 0.0449 s⁻¹ and 0.0432 s⁻¹
- koff [7]: 0.0465 s⁻¹
- kon [8]: 9.93e+06 M⁻¹ s⁻¹
- Kd [9]: 0.51 nM
B1: AB0089 TriNKET (bispecific antibody, human IgG1, kappa)
chain: QLQLQESGPGLVKPSETLSLTCTVSGFSLTNYGLHWIRQPPGKCLEWIGVIWVGGATDYNPSLKSRVTISVDTSKNQFSLKLSSVQAADTAVYYCAKGDYGDTLDYWGQGTLVTVSSGGGGSGGGGSGGGGSGGGGSDIQMTQSPSSLSASVGDRVTITCHASQNINFWLSWYQQKPGKAPKLLIYEASNLHTGVPSRFSGSGSGTDFTLTISSLQPEDFATYYCQQSHSYPLTFGCGTKLEIKGSDKTHTCPPCPAPELLGGPSVFLFPPKPKDTLMISRTPEVTCVVVDVSHEDPEVKFNWYVDGVEVHNAKTKPREEQYNSTYRVVSVLTVLHQDWLNGKEYKCKVSNKALPAPIEKTISKAKGQPREPRVYTLPPCRDELTKNQVSLTCLVKGFYPSDIAVEWESNGQPENNYKTTPPVLVSDGSFTLYSKLTVDKSRWQQGNVFSCSVMHEALHNHYTQKSLSLSPG
heavy: EVQLVESGGGLVKPGGSLRLSCAASGFTFSSYSMNWVRQAPGKGLEWVSSISSSSSYIYYADSVKGRFTISRDNAKNSLYLQMNSLRAEDTAVYYCARGAPIGAAAGWFDPWGQGTLVTVSSASTKGPSVFPLAPSSKSTSGGTAALGCLVKDYFPEPVTVSWNSGALTSGVHTFPAVLQSSGLYSLSSVVTVPSSSLGTQTYICNVNHKPSNTKVDKKVEPKSCDKTHTCPPCPAPELLGGPSVFLFPPKPKDTLMISRTPEVTCVVVDVSHEDPEVKFNWYVDGVEVHNAKTKPREEQYNSTYRVVSVLTVLHQDWLNGKEYKCKVSNKALPAPIEKTISKAKGQPREPQVCTLPPSRDELTENQVSLTCLVKGFYPSDIAVEWESNGQPENNYKTTPPVLDSDGSFFLYSWLTVDKSRWQQGNVFSCSVMHEALHNHYTQKSLSLSPG
light: DIQMTQSPSSVSASVGDRVTITCRASQGISSWLAWYQQKPGKAPKLLIYAASSLQSGVPSRFSGSGSGTDFTLTISSLQPEDFATYYCQQGVSFPRTFGGGTKVEIKRTVAAPSVFIFPPSDEQLKSGTASVVCLLNNFYPREAKVQWKVDNALQSGNSQESVTEQDSKDSTYSLSSTLTLSKADYEKHKVYACEVTHQGLSSPVTKSFNRGEC
notes: F3' format heterodimer of three chains; human IgG1 Fc with EW-RVT and Y349C/S354C mutations; also called AB0089 Lot AB0089-002; CLEC12A TriNKET AB0089
